In assay [1] the target is full-length 20S proteasome core particle, β-subunit T1A inactive variant (M. tuberculosis H37Rv) (UniProt P9WHU1). In words: negative stain EM.
For assay [2] the target is unchanged. In words: cryo-EM structure.

In assay [1], “bacterial proteasome activator Bpa, full-length, wild-type (from UniProt P9WKX3 1-174) (natural protein)” returned a percent of proteasomes doubly capped above 80% and a percent of proteasomes not associated with Bpa below 1%. This substance displayed a percent of core particles capped by Bpa on both ends in assay [2] above 90%.
“covalent dimer of C-terminally truncated Bpa and full-length Bpa (BpaΔC-Bpa) (from UniProt P9WKX3)”: in assay [1], the percent of proteasomes singly capped was 27% and the percent of proteasomes uncapped is 73%.

The values above are taken from paper PMC11953334, “Substrates bind to residues lining the ring of asymmetrically engaged bacterial proteasome activator Bpa” (Nature Communications, 2025).
